From PMC6545562, “Slx5/Slx8‐dependent ubiquitin hotspots on chromatin contribute to stress tolerance” (The EMBO Journal, 2019)

Target: T1, 6His-Slx5, recombinant (S. cerevisiae, UniProt P32828 1-619)
T1 construct: Slx5, S. cerevisiae; Host and purification are in the Appendix Supplementary Methods; source: recombinant
T1 sequence (looked up): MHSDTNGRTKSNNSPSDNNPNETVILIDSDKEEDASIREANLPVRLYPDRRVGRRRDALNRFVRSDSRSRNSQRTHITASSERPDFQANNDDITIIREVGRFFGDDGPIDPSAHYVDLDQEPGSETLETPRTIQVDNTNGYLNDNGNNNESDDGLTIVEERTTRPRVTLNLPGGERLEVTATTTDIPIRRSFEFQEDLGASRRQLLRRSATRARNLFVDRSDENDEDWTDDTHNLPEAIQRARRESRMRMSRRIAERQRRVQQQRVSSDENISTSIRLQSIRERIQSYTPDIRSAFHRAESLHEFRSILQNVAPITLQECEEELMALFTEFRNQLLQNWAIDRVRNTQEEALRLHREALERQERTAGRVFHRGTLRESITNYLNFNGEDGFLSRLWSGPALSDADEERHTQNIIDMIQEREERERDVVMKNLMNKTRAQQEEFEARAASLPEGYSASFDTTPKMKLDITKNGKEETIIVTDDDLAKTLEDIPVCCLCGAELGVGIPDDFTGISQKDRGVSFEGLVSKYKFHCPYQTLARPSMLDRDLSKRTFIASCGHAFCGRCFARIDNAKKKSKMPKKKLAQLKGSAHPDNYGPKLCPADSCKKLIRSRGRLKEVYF
Experiment: pull-down; GST pull-down: recombinant purified GST or GST-Euc1 used to co-precipitate recombinant 6His-Slx5
Details: both partners purified

B1: GST-Euc1, recombinant (natural protein, S. cerevisiae, UniProt Q04461 1-462, looked up)
chain: MPAREYNYVEGFGGYGSLDDDDSDRDSERRNHDLGQRTITTSPTGVSRHAALNRYMIPGRINPLFRPTDAAQPPIVSTSTSASATEPTNRIGPGRIKETPETNFNAFLIAQLTRMEEQNANLKEEISLMKKEQELFFLENQKKLEKGFKDINKYVEDVSAMKEVFKEVVGIMTGERIRFIDHTGENVTPQEAARVGNPSTSTQAHQSQSRSTNWQEYSMHASILAGDPRIKPEPGLSDFENGEYDGNESDENATTRNLPLNNPDSVSNADDSNNQLDGTGNENDIRNRRGCVGTSYKLNRAIQNVTDAAREYFEGLPGQPSVLSLERRYGSTWRRSAKERTLFTKRMTIIKRIIDIKDDPSKYGLSLPENKISRNQAIKVVENIRLGNNTFKGHHCRLSMSQLYEYFSKKMDKLEDYSLTLKRRGKPRRIFLLEEREARLSLQQPHSIPNSSTGTPEHDQDT
notes: Euc1 (Ymr111c), S. cerevisiae; Host and purification are in the Appendix Supplementary Methods; also called recombinant, non‐SUMOylated Euc1; source: recombinant, purified
B1: binds.
